Measurements published in the supplement of paper PMC7877785.
± gives the uncertainty stated by the source.

Test: self-splicing fitness, log relative to wild type (ln ratio); higher = more splicing; Tetrahymena group I intron in knt gene, E. coli kanamycin selection, DiMSum; sequences stand for … in CUCUCU…GGAGGGAAAAGUUAUCAGGCAUGCACCUGGUAGCUAGUCUUUAAACCAAUAGAUUGCAUCGGUUUAAAAGGCAAGACCGUCAAAUUGCGGGAAAGGGGUCAACAGCCGUUCAGUACCAAGUCUCAGGGGAAACUUUGAGAUGGCCUUGCAAAGGGUAUGGUAAUAAGCUGACGGACAUGGUCCUAACCACGCAGCCAAGUCCUAAGUCAACAGAUCUUCUGUUGAUAUGGAUGCAGUUCACAGACUAAAUGUCGGUCGGGGAAGAUGUAUUCUUCUCAUAAGAUAUAGUCGGACCUCUCCUUAAUGGGAGCUAGCGGAUGAAGUGAUGCAACACUGGAGCCGCUGGGAACUAAUUUGUAUGCGAAAGUAUAUUGAUUAGUUUUGGAGUACUCGUGGUCG
Outline: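 A randomised library covering all eight P1ex-region intron nucleotides was built with the intron in the knt kanamycin-resistance gene on pET-22b(+) and held in E. coli BL21(DE3). Cells were grown overnight at 37°C or 30°C on LB agar, with or without 25 μg/mL kanamycin, plus 100 μg/mL carbenicillin, 50 μM IPTG and 0.2% rhamnose, and pooled colonies were amplicon-sequenced on an Illumina HiSeq 2500. DiMSum fitness is the error-weighted combination of wild-type-normalised replicate fold changes, kanamycin versus none.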

Sequence	self-splicing fitness (ln) (30 °C)	self-splicing fitness (ln) (37 °C)
GGCUAGCAAUAUUACGACCU	-0.605 ± 0.081	0.0864 ± 0.09
GGCUAGCAAUAUUACGAGAA		-0.208 ± 0.37
GGCUAGCAAUAUUACGAUCA	-0.733 ± 0.093	-0.246 ± 0.088
GGCUAGCAAUAUUACGAUCG	-0.651 ± 0.12	-0.58 ± 0.15
GGCUAGCAAUAUUACGCAGA	-1.3 ± 0.1	-0.502 ± 0.11
GGCUAGCAAUAUUACGCGGC	-3.55 ± 0.43	-2.19 ± 0.46
GGCUAGCAAUAUUACGCUAA	-0.801 ± 0.2	-0.34 ± 0.15
GGCUAGCAAUAUUACGCUGA	-1.18 ± 0.12	-0.413 ± 0.13
GGCUAGCAAUAUUACGGAUG	-0.642 ± 0.13	-0.56 ± 0.15
GGCUAGCAAUAUUACGUAUG	-2.06 ± 0.13	-0.678 ± 0.13
GGCUAGCAAUAUUACGUGCA	0.326 ± 0.14	0.0604 ± 0.18
GGCUAGCAAUAUUACGUGUG	-0.503 ± 0.085	-0.362 ± 0.083
GGCUAGCAAUAUUACGUUGG	-2.34 ± 0.16	-3.24 ± 0.32
GGGAAGCAAUAUUACGACUC	-1.17 ± 0.1	-0.341 ± 0.13
GGGAAGCAAUAUUACGAUUA	-1.56 ± 0.21	-0.805 ± 0.18
GGGAAGCAAUAUUACGCAAU	-2.67 ± 0.17	-1.42 ± 0.19
GGGAAGCAAUAUUACGCACG	-0.766 ± 0.16	-0.128 ± 0.18
GGGAAGCAAUAUUACGCAGA	-3.81 ± 0.42	-1.65 ± 0.27
GGGAAGCAAUAUUACGCAGC	-1.29 ± 0.14	-1.12 ± 0.19
GGGAAGCAAUAUUACGCAGU	-2 ± 0.13	0.176 ± 0.14
GGGAAGCAAUAUUACGCAUG	-1.38 ± 0.16	-0.366 ± 0.2
GGGAAGCAAUAUUACGCCAA	-1.66 ± 0.095	-0.896 ± 0.1
GGGAAGCAAUAUUACGCGCG	-0.57 ± 0.13	-0.552 ± 0.14
GGGAAGCAAUAUUACGCGGA	-2.82 ± 0.23	-1.44 ± 0.18
GGGAAGCAAUAUUACGCUUC	-3.32 ± 0.4	

Sequence	self-splicing fitness (ln) (30 °C)	self-splicing fitness (ln) (37 °C)
GGGAAGCAAUAUUACGCUUU	-3.54 ± 0.24	
GGGAAGCAAUAUUACGGAGG	-2.91 ± 0.41	-1.99 ± 0.35
GGGAAGCAAUAUUACGGAUA		-1.38 ± 0.42
GGGAAGCAAUAUUACGGCCA	-0.752 ± 0.14	-0.611 ± 0.19
GGGAAGCAAUAUUACGGCGG	-1.2 ± 0.14	-1.94 ± 0.24
GGGAAGCAAUAUUACGGCUU	-2.11 ± 0.2	-1.41 ± 0.23
GGGAAGCAAUAUUACGGGGA	-1.49 ± 0.2	-2.65 ± 0.29
GGGAAGCAAUAUUACGGUCU	-1.58 ± 0.086	0.382 ± 0.11
GGGAAGCAAUAUUACGUAAG	-1.09 ± 0.086	-1.14 ± 0.13
GGGAAGCAAUAUUACGUAGU	-3.38 ± 0.18	-2.18 ± 0.17
GGGAAGCAAUAUUACGUCCG	-1.81 ± 0.15	-0.461 ± 0.18
GGGAAGCAAUAUUACGUGAU	-2.04 ± 0.1	-1.83 ± 0.16
GGGAAGCAAUAUUACGUUAA	-2.82 ± 0.18	-1.73 ± 0.19
GGGCAGCAAUAUUACGAAUC	-0.438 ± 0.15	-0.491 ± 0.21
GGGCAGCAAUAUUACGAGCA	-1.98 ± 0.1	-1.37 ± 0.11
GGGCAGCAAUAUUACGAGUG	-3.47 ± 0.24	-1.64 ± 0.13
GGGCAGCAAUAUUACGCAAC	-0.812 ± 0.16	-1.56 ± 0.13
GGGCAGCAAUAUUACGCACA	-0.436 ± 0.23	0.448 ± 0.23
GGGCAGCAAUAUUACGCGCC	-3.31 ± 0.18	-2.82 ± 0.28
GGGCAGCAAUAUUACGCGUC	-2.55 ± 0.4	-1.71 ± 0.31
GGGCAGCAAUAUUACGCUAU	-1.13 ± 0.077	-0.411 ± 0.094
GGGCAGCAAUAUUACGGAAG	-3.03 ± 0.23	-1.02 ± 0.17
GGGCAGCAAUAUUACGGAAU	-1.49 ± 0.11	-1.3 ± 0.19
GGGCAGCAAUAUUACGGAUA	-2.63 ± 0.17	-1.8 ± 0.13
GGGCAGCAAUAUUACGGGCG	-0.318 ± 0.088	-0.0663 ± 0.1

Sequence	self-splicing fitness (ln) (30 °C)	self-splicing fitness (ln) (37 °C)
GGGCAGCAAUAUUACGGUCC	-4.03 ± 0.46	-2.14 ± 0.28
GGGCAGCAAUAUUACGGUUC	-1.53 ± 0.11	-1.93 ± 0.13
GGGCAGCAAUAUUACGUCAU	-0.717 ± 0.066	0.195 ± 0.076
GGGCAGCAAUAUUACGUCGA	-0.0821 ± 0.07	0.711 ± 0.1
GGGCAGCAAUAUUACGUGCA	-1.62 ± 0.079	0.116 ± 0.098
GGGCAGCAAUAUUACGUGGC	-3.12 ± 0.25	-2.21 ± 0.26
GGGCAGCAAUAUUACGUUAA	-1.19 ± 0.1	-0.46 ± 0.11
GGGCAGCAAUAUUACGUUUA	-1.09 ± 0.069	-0.227 ± 0.094
GGGGAGCAAUAUUACGAACG		-1.11 ± 0.36
GGGGAGCAAUAUUACGAUAC	-2.37 ± 0.3	-0.552 ± 0.27
GGGGAGCAAUAUUACGAUUC	-1.52 ± 0.16	-0.791 ± 0.2
GGGGAGCAAUAUUACGCCCA	-1.14 ± 0.19	-0.0692 ± 0.27
GGGGAGCAAUAUUACGCUAA		0.376 ± 0.38
GGGGAGCAAUAUUACGCUGA	-3.2 ± 0.16	-2.33 ± 0.2
GGGGAGCAAUAUUACGGCAA	-2.04 ± 0.33	-0.565 ± 0.25
GGGGAGCAAUAUUACGGCGA	-2.4 ± 0.26	-1.81 ± 0.24
GGGGAGCAAUAUUACGGGUU	-2.84 ± 0.22	-2.2 ± 0.39
GGGGAGCAAUAUUACGGUCC	-1.26 ± 0.46	
GGGGAGCAAUAUUACGUCAA	-2.48 ± 0.3	-3.16 ± 0.35
GGGGAGCAAUAUUACGUCCA	-0.767 ± 0.12	-0.145 ± 0.22
GGGGAGCAAUAUUACGUUAC	-3.54 ± 0.38	-1.07 ± 0.26
GGGGAGCAAUAUUACGUUGU		-1.82 ± 0.28
GGGGAGCAAUAUUACGUUUA	-2.13 ± 0.28	-2.77 ± 0.48
GGGUAGCAAUAUUACGAACU	-0.832 ± 0.27	-0.534 ± 0.19
GGGUAGCAAUAUUACGAUCU	-1.64 ± 0.092	-0.576 ± 0.11

Sequence	self-splicing fitness (ln) (30 °C)	self-splicing fitness (ln) (37 °C)
GGGUAGCAAUAUUACGCCGA	-0.784 ± 0.16	-0.0895 ± 0.11
GGGUAGCAAUAUUACGGACU	-0.272 ± 0.19	0.331 ± 0.24
GGGUAGCAAUAUUACGGCAA	-0.369 ± 0.24	-0.33 ± 0.28
GGGUAGCAAUAUUACGGGCC	-2.03 ± 0.38	
GGGUAGCAAUAUUACGGGCG	-0.346 ± 0.098	-0.12 ± 0.13
GGGUAGCAAUAUUACGGUGU	-1.09 ± 0.095	-0.365 ± 0.12
GGGUAGCAAUAUUACGUACA	-1.34 ± 0.2	-0.763 ± 0.21
GGGUAGCAAUAUUACGUACG	-0.676 ± 0.23	-0.536 ± 0.29
GGGUAGCAAUAUUACGUAGU	-2.23 ± 0.085	-0.762 ± 0.093
GGGUAGCAAUAUUACGUCUU	-0.106 ± 0.1	0.268 ± 0.14
GGGUAGCAAUAUUACGUUUC	-2.16 ± 0.12	-0.68 ± 0.15
GGUAAGCAAUAUUACGAACC		-1.64 ± 0.42
GGUAAGCAAUAUUACGAAUU	-1.04 ± 0.11	-0.205 ± 0.14
GGUAAGCAAUAUUACGACAG	-2.56 ± 0.29	-1.99 ± 0.44
GGUAAGCAAUAUUACGACUA	0.407 ± 0.12	-0.574 ± 0.12
GGUAAGCAAUAUUACGAGCU	-3.03 ± 0.35	-1.36 ± 0.25
GGUAAGCAAUAUUACGAGUA	-2.4 ± 0.21	-1.03 ± 0.14
GGUAAGCAAUAUUACGAUGG	-3.83 ± 0.39	-2.64 ± 0.33
GGUAAGCAAUAUUACGCAAA	-2.37 ± 0.22	-1.15 ± 0.17
GGUAAGCAAUAUUACGCAGU	-1.51 ± 0.17	-1.55 ± 0.24
GGUAAGCAAUAUUACGCAUA	-1.19 ± 0.15	0.0315 ± 0.17
GGUAAGCAAUAUUACGCGCC	-2.99 ± 0.33	-1.48 ± 0.29
GGUAAGCAAUAUUACGCUCA	-0.326 ± 0.26	-0.105 ± 0.48
